Assay results from PMC5897525.

Molecular target: rFel d 1.mFc
Test: SPR; 25°C; dimeric

**Q.** Which Kd does the source give for REGN1908 here?
**A.** The Kd was 0.0316 nM.

**Q.** What about the koff of the same substance?
**A.** The koff was 7.25e-05 s⁻¹.
